Measured values reported in patent US20230037815A1.

Molecular target: cynomolgus CD19 (cynomolgus)
Experiment: Octet HTX (ForteBio), IgG on AHC sensor, 1:1 fit

B1: CNG-CD19-702 (antibody, V domains shown)
VH: QVQLQESGPGLVKPSQTLSLTCTVSGGSTSTSGMGVSWIRQHPGKGLEWIGHIWWDDDKRYNPVLKSRVTISVDTSKNQFSLKLSSVTAADTAVYYCARMELWSYYFDPWGQGTLVTVSS
VL: EIVLTQSPATLSLSPGERATLSCSASSSVSYMHWYQQKPGQAPRLLIYDTSKLASGIPARFSGSGSGTDFTLTISSLEPEDFAVYYCFQGSVYPFTFGQGTKLEIK
Q: Which results are given for B1?
A: Kd: 1.3 nM; koff: 0.000295 s⁻¹
